According to paper PMC7611158 (Molecular cancer therapeutics, 2019):

What was measured:
[1] = target: JAG1 (target of the affinity printed for hJ1-65Dv9) (UniProt P78504)
[2] = target: hJAG1 DSL-EGF1-3 protein (Homo sapiens, UniProt P78504); assay: SPR
[3] = target: murine Jagged1 (mJag1), on transfected B16F10 cells (mouse, UniProt Q9QXX0); assay: flow cytometry on cells
[4] = target: human DLL4 (hDLL4), on transfected B16F10 cells (Homo sapiens, UniProt Q9NR61); assay: flow cytometry on cells
[5] = target: human JAGGED2 (hJAG2), on transfected HEK293 cells (Homo sapiens, UniProt Q9Y219); assay: flow cytometry on cells
Sequence of human JAGGED2 (hJAG2), on transfected HEK293 cells (Q9Y219 24-1238): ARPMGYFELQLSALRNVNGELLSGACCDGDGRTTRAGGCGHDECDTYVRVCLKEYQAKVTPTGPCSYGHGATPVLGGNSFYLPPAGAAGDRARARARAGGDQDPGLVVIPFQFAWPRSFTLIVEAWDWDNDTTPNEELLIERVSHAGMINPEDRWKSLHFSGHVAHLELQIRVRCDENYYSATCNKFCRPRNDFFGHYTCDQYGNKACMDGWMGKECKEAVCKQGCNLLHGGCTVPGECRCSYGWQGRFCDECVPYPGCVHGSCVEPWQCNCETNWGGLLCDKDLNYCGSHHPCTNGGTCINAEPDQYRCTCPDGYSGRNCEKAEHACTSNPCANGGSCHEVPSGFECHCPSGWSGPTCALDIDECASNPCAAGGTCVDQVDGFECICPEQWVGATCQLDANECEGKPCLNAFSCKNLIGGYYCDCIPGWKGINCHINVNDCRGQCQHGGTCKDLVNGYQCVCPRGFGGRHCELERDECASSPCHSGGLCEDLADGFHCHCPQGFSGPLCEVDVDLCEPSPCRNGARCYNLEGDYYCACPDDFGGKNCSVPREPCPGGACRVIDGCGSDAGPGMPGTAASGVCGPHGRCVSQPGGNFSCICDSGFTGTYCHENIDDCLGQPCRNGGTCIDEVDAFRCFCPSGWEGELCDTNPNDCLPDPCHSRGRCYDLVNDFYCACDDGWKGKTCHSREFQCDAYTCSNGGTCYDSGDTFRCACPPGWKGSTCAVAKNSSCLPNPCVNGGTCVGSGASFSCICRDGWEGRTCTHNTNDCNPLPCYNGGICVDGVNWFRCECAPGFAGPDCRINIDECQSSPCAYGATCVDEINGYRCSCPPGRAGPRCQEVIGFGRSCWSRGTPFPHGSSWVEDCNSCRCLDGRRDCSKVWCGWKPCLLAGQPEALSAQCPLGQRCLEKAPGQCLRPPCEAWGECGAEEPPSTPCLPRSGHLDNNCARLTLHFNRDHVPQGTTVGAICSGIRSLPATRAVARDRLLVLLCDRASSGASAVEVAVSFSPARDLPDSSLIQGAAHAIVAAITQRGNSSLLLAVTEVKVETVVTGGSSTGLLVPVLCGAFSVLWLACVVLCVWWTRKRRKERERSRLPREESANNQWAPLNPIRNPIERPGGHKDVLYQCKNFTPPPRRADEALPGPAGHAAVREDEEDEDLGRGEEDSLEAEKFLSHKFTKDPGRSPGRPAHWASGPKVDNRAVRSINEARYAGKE

Sequence of murine Jagged1 (mJag1), on transfected B16F10 cells (Q9QXX0 34-1218, one chain of several): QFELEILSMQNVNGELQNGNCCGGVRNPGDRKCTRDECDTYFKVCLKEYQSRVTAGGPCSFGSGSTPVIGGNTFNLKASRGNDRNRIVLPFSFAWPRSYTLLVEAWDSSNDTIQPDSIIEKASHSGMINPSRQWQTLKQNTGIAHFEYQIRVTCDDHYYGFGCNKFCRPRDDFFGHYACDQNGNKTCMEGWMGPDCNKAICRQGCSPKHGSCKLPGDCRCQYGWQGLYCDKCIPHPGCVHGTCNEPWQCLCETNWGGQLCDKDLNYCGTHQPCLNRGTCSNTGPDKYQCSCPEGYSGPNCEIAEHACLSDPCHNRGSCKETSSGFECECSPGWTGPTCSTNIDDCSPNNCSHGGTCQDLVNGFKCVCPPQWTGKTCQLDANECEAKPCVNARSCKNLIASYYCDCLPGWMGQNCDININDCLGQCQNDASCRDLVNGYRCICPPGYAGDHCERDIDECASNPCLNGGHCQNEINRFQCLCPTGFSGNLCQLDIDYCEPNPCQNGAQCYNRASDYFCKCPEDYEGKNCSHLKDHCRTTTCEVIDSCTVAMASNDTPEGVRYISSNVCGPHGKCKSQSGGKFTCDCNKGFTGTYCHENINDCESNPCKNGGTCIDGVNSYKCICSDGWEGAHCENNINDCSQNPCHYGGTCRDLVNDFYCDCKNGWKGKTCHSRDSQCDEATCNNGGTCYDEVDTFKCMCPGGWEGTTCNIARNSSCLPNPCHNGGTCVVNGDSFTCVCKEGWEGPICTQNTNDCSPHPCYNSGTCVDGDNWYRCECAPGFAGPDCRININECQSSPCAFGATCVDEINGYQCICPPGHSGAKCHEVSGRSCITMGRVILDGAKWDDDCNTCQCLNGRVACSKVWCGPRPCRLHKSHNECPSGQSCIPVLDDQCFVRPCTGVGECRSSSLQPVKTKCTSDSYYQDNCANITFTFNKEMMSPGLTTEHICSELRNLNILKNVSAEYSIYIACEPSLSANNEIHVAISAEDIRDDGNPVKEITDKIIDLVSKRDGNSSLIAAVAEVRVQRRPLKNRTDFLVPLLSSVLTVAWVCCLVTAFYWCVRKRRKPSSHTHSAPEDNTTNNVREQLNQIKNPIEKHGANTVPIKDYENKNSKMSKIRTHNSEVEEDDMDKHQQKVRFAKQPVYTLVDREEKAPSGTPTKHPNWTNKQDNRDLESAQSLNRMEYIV
Sequence of human DLL4 (hDLL4), on transfected B16F10 cells (Q9NR61 27-685, one chain of several): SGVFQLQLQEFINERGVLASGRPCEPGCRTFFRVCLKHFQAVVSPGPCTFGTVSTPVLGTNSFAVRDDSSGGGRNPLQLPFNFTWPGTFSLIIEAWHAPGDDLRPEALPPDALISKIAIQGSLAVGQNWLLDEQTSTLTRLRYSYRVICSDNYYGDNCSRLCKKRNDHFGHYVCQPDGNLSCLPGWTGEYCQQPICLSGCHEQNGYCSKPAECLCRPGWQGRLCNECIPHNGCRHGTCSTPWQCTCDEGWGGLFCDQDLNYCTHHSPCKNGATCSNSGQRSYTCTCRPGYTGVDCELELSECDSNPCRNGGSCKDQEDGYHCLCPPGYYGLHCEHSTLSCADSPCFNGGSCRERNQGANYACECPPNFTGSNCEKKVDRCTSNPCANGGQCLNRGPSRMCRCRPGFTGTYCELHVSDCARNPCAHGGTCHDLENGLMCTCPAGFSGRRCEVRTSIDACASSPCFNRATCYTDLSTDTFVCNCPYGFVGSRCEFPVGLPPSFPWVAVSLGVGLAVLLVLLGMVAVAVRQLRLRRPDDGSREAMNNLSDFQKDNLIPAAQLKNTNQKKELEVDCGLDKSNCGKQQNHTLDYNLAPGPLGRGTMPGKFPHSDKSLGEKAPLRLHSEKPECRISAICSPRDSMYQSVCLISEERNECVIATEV
Sequence of hJAG1 DSL-EGF1-3 protein (P78504 185-335): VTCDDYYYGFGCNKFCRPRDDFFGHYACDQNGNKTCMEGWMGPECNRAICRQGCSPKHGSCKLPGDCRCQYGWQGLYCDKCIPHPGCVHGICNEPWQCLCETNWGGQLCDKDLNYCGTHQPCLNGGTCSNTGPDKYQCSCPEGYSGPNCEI
Sequence of JAG1 (target of the affinity printed for hJ1-65Dv9) (P78504 34-1218): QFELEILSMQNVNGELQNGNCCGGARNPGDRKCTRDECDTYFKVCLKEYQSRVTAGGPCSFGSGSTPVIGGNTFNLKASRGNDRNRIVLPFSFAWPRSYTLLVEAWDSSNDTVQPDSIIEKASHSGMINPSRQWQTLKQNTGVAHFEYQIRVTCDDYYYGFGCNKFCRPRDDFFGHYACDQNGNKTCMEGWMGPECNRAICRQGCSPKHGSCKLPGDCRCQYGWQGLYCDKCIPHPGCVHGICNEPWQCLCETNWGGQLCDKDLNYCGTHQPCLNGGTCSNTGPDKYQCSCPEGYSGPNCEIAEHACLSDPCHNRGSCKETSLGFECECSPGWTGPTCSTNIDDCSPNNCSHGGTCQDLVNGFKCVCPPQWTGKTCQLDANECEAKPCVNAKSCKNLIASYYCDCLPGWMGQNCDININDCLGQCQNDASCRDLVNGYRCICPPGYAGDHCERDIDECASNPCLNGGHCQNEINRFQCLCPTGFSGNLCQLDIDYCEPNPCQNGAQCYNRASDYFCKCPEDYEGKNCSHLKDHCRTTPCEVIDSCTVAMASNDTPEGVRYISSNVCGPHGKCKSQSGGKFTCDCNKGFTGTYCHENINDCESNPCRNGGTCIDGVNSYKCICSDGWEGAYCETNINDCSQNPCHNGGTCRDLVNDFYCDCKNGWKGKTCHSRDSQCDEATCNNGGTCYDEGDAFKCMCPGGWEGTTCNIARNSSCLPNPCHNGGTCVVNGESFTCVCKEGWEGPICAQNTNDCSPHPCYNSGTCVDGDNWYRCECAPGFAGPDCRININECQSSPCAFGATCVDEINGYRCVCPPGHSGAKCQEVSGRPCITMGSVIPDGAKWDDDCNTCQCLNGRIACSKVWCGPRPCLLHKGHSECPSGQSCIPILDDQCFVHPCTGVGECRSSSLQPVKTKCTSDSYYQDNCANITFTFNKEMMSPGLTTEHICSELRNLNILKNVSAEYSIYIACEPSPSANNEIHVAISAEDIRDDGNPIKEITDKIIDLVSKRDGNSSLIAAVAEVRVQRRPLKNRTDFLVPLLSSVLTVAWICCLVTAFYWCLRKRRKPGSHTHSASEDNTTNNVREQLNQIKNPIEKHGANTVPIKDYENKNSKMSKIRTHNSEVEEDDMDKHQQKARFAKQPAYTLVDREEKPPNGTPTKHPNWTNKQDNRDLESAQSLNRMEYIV

B1: hJ1-65Dv9 (antibody, V domains shown)
VH: QVQLVQSGAELKKPGSSVKVSCKASGYTFTDYEMHWVRQAPGQGLEWMGAIQPGGGGTAYNQKFKGRVTLTADKSTSTAYMELSSLRSEDTAVYYCTRRGYDDYPFAYWGQGTLVTVSS
VL: DIQMTQSPSSLSASVGDRVTITCRASGNIHNYLAWYQQKPGKAPKLLIYNAKTLADAVPSRFSGSGSGTDYTLTISSLQPEDFATYYCQHFWSAPWTFGQGTKLEIK
Kd [1]: 0.0139 nM

B2: J1-65D (antibody, V domains shown)
VH: QVQLQQPGAELVRPGASVKLSCKALGYTFTDYEMHWVKETPVHGLEWIGAIQPGGGGTAYNQKFKGKATLTADKSSSTAYMELSSLTSEDSAVYYCTRRGYDDYPFAYWGQGTLVTVSS
VL: DIQLTQSPASLSASVGETVTITCRASGNIHNYLAWYQQKQGKSPQLLVYNAKTLADDIPSRFSGSGSGTQYSLKINSLQPEDFGSYYCQHFWSAPWTFGGGTKLEIK
Kd [2]: 9.7 nM
binding result [3]: no binding
binding result [4]: no binding
binding result [5]: no binding

B3: J1-183D (antibody, V domains shown)
VH: QVQLQQPGTELVRPGVSVKISCKVSGYAFTDYAIHWIMQSHAKSLEWIGIINTYYGDSKYNQKFKDKATMTVDKSSNTAYMELARLTSEDSAIYYCARGYDGFAYWGQGTLVTVSS
VL: DIQLTQSPASLSASVGETVTFTCRTSENIYSYLTWYQQKQGKSPQLLVYNAKILAAGVPSRFSGYGSGTQFSLKINSLQPEDFGTYYCQHHYDIPWTFGGGTKLEIK
Kd [2]: 4.9 nM
binding result [3]: no binding
binding result [4]: no binding
binding result [5]: no binding
